Patent publication US20200181277A1

Experiments:
[1] = biological target: purified human C1q (human) (UniProt P02745); experiment: cell-based or functional assay
[2] = biological target: human CD40 (human) (UniProt P25942); experiment: cell-based or functional assay
Sequence of human CD40 (human) (P25942 21-277): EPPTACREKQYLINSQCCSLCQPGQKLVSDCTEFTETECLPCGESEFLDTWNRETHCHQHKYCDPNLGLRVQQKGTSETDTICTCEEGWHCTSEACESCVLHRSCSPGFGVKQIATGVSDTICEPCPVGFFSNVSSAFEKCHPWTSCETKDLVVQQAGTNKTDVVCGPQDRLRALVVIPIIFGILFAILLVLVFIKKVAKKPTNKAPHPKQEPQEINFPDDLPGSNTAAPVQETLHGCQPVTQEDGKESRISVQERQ

Row | Substance | C1q EC90 (µg/mL), viability assay on WIL2-S SF cells [1] [µg/mL] | CD40 response, luciferase reporter cells, EC50 [2] [µg/mL]
1 | IgG1-b12 (antibody) | > 2.5 | –
2 | purified, recombinant CD40 ligand (R&D systems, Cat No. 6420-CL-025/CF) (from UniProt P29965 108-261) | – | 0.113
